This note sets out measurements from patent US20170204176A1 (MacroGenics, published 2017).

Test [1] deals with T1, His-tagged cynomolgus monkey DR5 (cynomolgus monkey (Macaca fascicularis)).
T1 construct: also called His-tagged DR5
The test is described as follows: Biacore (SPR); DR5 mAb 2×CD3 mAb 2 diabody with His-tagged cynomolgus monkey DR5. On the technique in general: Surface plasmon resonance follows binding to a sensor surface in real time, without labels.
Protocol: (§1) Bi-specific DR5×CD3 diabodies were incubated with His-tagged DR5 and the kinetics of binding was determined via Biacore analysis.

The target in test [2] is T1, His-tagged cynomolgus monkey DR5. Briefly: Biacore (SPR); DR5 mAb 4×CD3 mAb 2 diabody with His-tagged cynomolgus monkey DR5.
Protocol: as §1
For test [3], the target named is T2, histidine tagged TRAIL (UniProt P50591 95-281, limits assumed).
T2 construct: also called TRAIL-His; TRAIL ligand; not shown: histidine tag
The test is described as follows: ELISA; biotinylated DR5 mAb 2 on 1 µg/mL TRAIL-His coat. Background: In an ELISA, binding on a coated surface is turned into a signal by an enzyme label.

Test [4] addresses T3, His-tagged human DR5 (human, UniProt O14763 56-210, limits assumed).
T3 construct: whole precursor entry named; also called His-tagged DR5; not shown: His tag
The test is described as follows: Biacore (SPR); DR5 mAb 1×CD3 mAb 2 diabody with His-tagged human DR5.

For test [5], the target named is T1, His-tagged cynomolgus monkey DR5. The test is described as follows: Biacore (SPR); DR5 mAb 1×CD3 mAb 2 diabody with His-tagged cynomolgus monkey DR5.
Protocol: as §1
Test [6] deals with human DR5 (human, UniProt O14763 56-210, limits assumed). The test is described as follows: titration with fluorescence readout (y axis: Log MFI); the text does not describe the assay format.
The target in test [7] is T2, histidine tagged TRAIL. The test is described as follows: ELISA; biotinylated DR5 mAb 1 on 1 µg/mL TRAIL-His coat.
For test [8], the target named is T1, His-tagged cynomolgus monkey DR5. Briefly: Biacore (SPR); DR5 mAb 3×CD3 mAb 2 diabody with His-tagged cynomolgus monkey DR5.
Protocol: as §1

T3 sequence (O14763 other isoform, or with tags, fused parts or gaps limits assumed): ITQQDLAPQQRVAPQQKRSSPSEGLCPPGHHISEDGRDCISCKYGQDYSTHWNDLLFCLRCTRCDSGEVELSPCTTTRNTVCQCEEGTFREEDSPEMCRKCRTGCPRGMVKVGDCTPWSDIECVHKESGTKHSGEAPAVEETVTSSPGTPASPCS
Sequence of human DR5 (O14763 other isoform, or with tags, fused parts or gaps limits assumed): as above

B1: DR5 mAb 2×CD3 mAb 2 diabody (bispecific antibody)
chain 1: DIVMTQSHKFMSTSVGDRVSITCKASQDVNTAVAWYQQKPGQSPKLLIYWASTRHTGVPDRFTGSGSGTDYTLTIKSVQAEDLTLYYCQQHYITPWTFGGGTKLEIKGGGSGGGGEVQLVESGGGLVQPGGSLRLSCAASGFTFSTYAMNWVRQAPGKGLEWVGRIRSKYNNYATYYADSVKGRFTISRDDSKNSLYLQMNSLKTEDTAVYYCVRHGNFGNSYVSWFAYWGQGTLVTVSSASTKGEVAACEKEVAALEKEVAALEKEVAALEK
chain 2: QAVVTQEPSLTVSPGGTVTLTCRSSTGAVTTSNYANWVQQKPGQAPRGLIGGTNKRAPWTPARFSGSLLGGKAALTITGAQAEDEADYYCALWYSNLWVFGGGTKLTVLGGGGSGGGGKVQLQQSGAELVKPGASVKLSCKASGYTFTEYILHWVKQKSGQGLEWIGWFYPGNNNIKYNEKFKDKATLTADKSSSTVYMELSRLTSEDSAVYFCARHEQGPGYFDYWGQGTTLTVSSASTKGKVAACKEKVAALKEKVAALKEKVAALKE
notes: Two-chain bi-specific DR5×CD3 diabody
On to B1, for which binding in test [1] was characterised by a dissociation constant (Kd) of 0.42 nM.

B2: DR5 mAb 4×CD3 mAb 2 diabody (bispecific antibody)
chain 1: EIVLTQSPGTLSLSPGERATLSCRASQGISRSYLAWYQQKPGQAPSLLIYGASSRATGIPDRFSGSGSGTDFTLTISRLEPEDFAVYYCQQFGSSPWTFGQGTKVEIKGGGSGGGGEVQLVESGGGLVQPGGSLRLSCAASGFTFSTYAMNWVRQAPGKGLEWVGRIRSKYNNYATYYADSVKGRFTISRDDSKNSLYLQMNSLKTEDTAVYYCVRHGNFGNSYVSWFAYWGQGTLVTVSSASTKGEVAACEKEVAALEKEVAALEKEVAALEK
chain 2: QAVVTQEPSLTVSPGGTVTLTCRSSTGAVTTSNYANWVQQKPGQAPRGLIGGTNKRAPWTPARFSGSLLGGKAALTITGAQAEDEADYYCALWYSNLWVFGGGTKLTVLGGGGSGGGGQVQLQESGPGLVKPSQTLSLTCTVSGGSISSGDYFWSWIRQLPGKGLEWIGHIHNSGTTYYNPSLKSRVTISVDTSKKQFSLRLSSVTAADTAVYYCARDRGGDYYYGMDVWGQGTTVTVSSASTKGKVAACKEKVAALKEKVAALKEKVAALKE
notes: Two-chain bi-specific DR5×CD3 diabody with the VL and VH of conatumumab (DR5 mAb 4); also called conatumumab variable domains
For the molecule B2, in test [2], binding was put at a Kd of 16.4 nM.

B3: DR5 mAb 2 (antibody, V domains shown)
VH: KVQLQQSGAELVKPGASVKLSCKASGYTFTEYILHWVKQKSGQGLEWIGWFYPGNNNIKYNEKFKDKATLTADKSSSTVYMELSRLTSEDSAVYFCARHEQGPGYFDYWGQGTTLTVSS
VL: DIVMTQSHKFMSTSVGDRVSITCKASQDVNTAVAWYQQKPGQSPKLLIYWASTRHTGVPDRFTGSGSGTDYTLTIKSVQAEDLTLYYCQQHYITPWTFGGGTKLEIK
notes: Murine anti-human DR5 monoclonal antibody; also called anti-human DR5 monoclonal antibody DR5 mAb 2; DR mAb 2
Consider B3, for which the binding result in test [3] was “no binding (tested: 2 µg/mL)”.

B4: DR5 mAb 1×CD3 mAb 2 diabody (bispecific antibody)
chain 1: DIVLTQSPASLAVSLGQRATISCRASKSVSSSGYSYMHWYQQKPGQPPKVLIFLSSNLDSGVPARFSGSGSGTDFTLNIHPVEDGDAATYYCQHSRDLPPTFGGGTKLEIKGGGSGGGGEVQLVESGGGLVQPGGSLRLSCAASGFTFSTYAMNWVRQAPGKGLEWVGRIRSKYNNYATYYADSVKGRFTISRDDSKNSLYLQMNSLKTEDTAVYYCVRHGNFGNSYVSWFAYWGQGTLVTVSSASTKGEVAACEKEVAALEKEVAALEKEVAALEK
chain 2: QAVVTQEPSLTVSPGGTVTLTCRSSTGAVTTSNYANWVQQKPGQAPRGLIGGTNKRAPWTPARFSGSLLGGKAALTITGAQAEDEADYYCALWYSNLWVFGGGTKLTVLGGGGSGGGGEVKFLESGGGLVQPGGSLKLSCVASGFDFSRYWMSWVRQAPGKGLEWIGEINPDSNTINYTPSLKDKFIISRDNAKNTLYLQMTKVRSEDTALYYCTRRAYYGNPAWFAYWGQGTLVTVSAASTKGKVAACKEKVAALKEKVAALKEKVAALKE
notes: as for B1
Regarding B4, the Kd (commonly a measure of binding affinity in units of concentration) in test [4] worked out at 0.14 nM; in test [5] it was 32.5 nM.

B5: DR5 mAb 1 (antibody, V domains shown)
VH: EVKFLESGGGLVQPGGSLKLSCVASGFDFSRYWMSWVRQAPGKGLEWIGEINPDSNTINYTPSLKDKFIISRDNAKNTLYLQMTKVRSEDTALYYCTRRAYYGNPAWFAYWGQGTLVTVSS
VL: DIVLTQSPASLAVSLGQRATISCRASKSVSSSGYSYMHWYQQKPGQPPKVLIFLSSNLDSGVPARFSGSGSGTDFTLNIHPVEDGDAATYYCQHSRDLPPTFGGGTKLEIK
notes: Murine anti-human DR5 monoclonal antibody; also called anti-human DR5 monoclonal antibody DR5 mAb 1
As for B5, the EC50 (read off the curve) – broadly, the midpoint of the concentration-response curve – in test [6] was ~1 nM. The binding result in test [7] is “no binding (tested: 2 µg/mL)”.

B6: DR5 mAb 3×CD3 mAb 2 diabody (bispecific antibody)
chain 1: SELTQDPAVSVALGQTVRITCSGDSLRSYYASWYQQKPGQAPVLVIYGANNRPSGIPDRFSGSSSGNTASLTITGAQAEDEADYYCNSADSSGNHVVFGGGTKLTVLGGGGSGGGGEVQLVESGGGLVQPGGSLRLSCAASGFTFSTYAMNWVRQAPGKGLEWVGRIRSKYNNYATYYADSVKGRFTISRDDSKNSLYLQMNSLKTEDTAVYYCVRHGNFGNSYVSWFAYWGQGTLVTVSSASTKGEVAACEKEVAALEKEVAALEKEVAALEK
chain 2: QAVVTQEPSLTVSPGGTVTLTCRSSTGAVTTSNYANWVQQKPGQAPRGLIGGTNKRAPWTPARFSGSLLGGKAALTITGAQAEDEADYYCALWYSNLWVFGGGTKLTVLGGGGSGGGGEVQLVQSGGGVERPGGSLRLSCAASGFTFDDYAMSWVRQAPGKGLEWVSGINWQGGSTGYADSVKGRVTISRDNAKNSLYLQMNSLRAEDTAVYYCAKILGAGRGWYFDYWGKGTTVTVSSASTKGKVAACKEKVAALKEKVAALKEKVAALKE
notes: Two-chain bi-specific DR5×CD3 diabody with the VL and VH of drozitumab (DR5 mAb 3); also called drozitumab variable domains
In test [8], B6 displayed a Kd of 13.3 nM.
